Data as given in US20250043302A1, “MUTATED HYDROXYPHENYLPYRUVATE DIOXYGENASE POLYPEPTIDE, AND CODING GENE AND USE THEREOF” (BEIJING DABEINONG BIOTECHNOLOGY CO., LTD., priority 2021, published 2025).

Legend:
Assay type in all cases: in vivo
[1] = tested on: Arabidopsis thaliana T1 plants; experiment: Topramezone tolerance of transgenic Arabidopsis thaliana T1 plants (spray, bleached leaf area grade, damage score); conditions: for Resistance evaluation / Scores / Grade 0 (classification and statistics of the grade of pesticide damage; number of plants) / Grade 1 (classification and statistics of the grade of pesticide damage; number of plants) / Grade 2 (classification and statistics of the grade of pesticide damage; number of plants) / Grade 3 (classification and statistics of the grade of pesticide damage; number of plants): Arabidopsis thaliana T1 plants; for Grade 0 (classification and statistics of the grade of pesticide damage; number of plants) / Grade 1 (classification and statistics of the grade of pesticide damage; number of plants) / Grade 2 (classification and statistics of the grade of pesticide damage; number of plants) / Grade 3 (classification and statistics of the grade of pesticide damage; number of plants): 16 plants
Method in brief: (§1)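 Damage graded 0–3 from the proportion of bleached leaf area 7 days after spraying. Plants were glufosinate-selected T1 lines, 18 days after sowing, plus vector and wild-type controls. Rates: mesotrione 52.5–420, isoxaflutole 35–280, topramezone 25–200 g ai/ha, with water (0×).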

[2] = tested on: Arabidopsis thaliana T1 plants; experiment: Isoxaflutole tolerance of transgenic Arabidopsis thaliana T1 plants (spray, bleached leaf area grade, damage score); conditions: Arabidopsis thaliana T1 plants; for Grade 0 (classification and statistics of the grade of pesticide damage; number of plants) / Grade 1 (classification and statistics of the grade of pesticide damage; number of plants) / Grade 2 (classification and statistics of the grade of pesticide damage; number of plants) / Grade 3 (classification and statistics of the grade of pesticide damage; number of plants): 16 plants;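 for Scores: Weighted damage index from 0 to 100 where higher means more damage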
Method in brief: as §1

[3] = tested on: Arabidopsis thaliana T1 plants; experiment: Mesotrione tolerance of transgenic Arabidopsis thaliana T1 plants (spray, bleached leaf area grade, damage score); set-up: Scores: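 damage score 0-100 computed as Σ(N×S)/(T×M)×100 over grades 0-3 with higher meaning more damage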; conditions: Table 9; for Classification and statistics of the grade of pesticide damage Grade 0: number of plants at grade 0; for Classification and statistics of the grade of pesticide damage Grade 1: number of plants at grade 1; for Classification and statistics of the grade of pesticide damage Grade 2: number of plants at grade 2; for Classification and statistics of the grade of pesticide damage Grade 3: number of plants at grade 3; for Scores: pesticide damage score
Method in brief: as §1

[4] = topramezone 100 g ai/ha (4x field concentration)
[5] = topramezone 200 g ai/ha (8x field concentration)
[6] = isoxaflutole 140 g ai/ha (2x field concentration)
[7] = isoxaflutole 280 g ai/ha (4x field concentration)

B1: AsHPPDm-F372V-F383W-02: nucleotide sequence encoding Avena sativa HPPD with F372V+F383W; vector DBN11777 (nucleic acid)
DNA: ATGCCACCTACTCCAGCTACAGCTACTGGTGCTGCTGCTGCTGCCGTTACTCCTGAGCACGCTGCCAGGTCATTCCCCAGGGTGGTTCGCGTGAACCCCAGATCTGATAGGTTCCCAGTTCTGAGCTTCCACCATGTTGAGCTGTGGTGCGCTGATGCTGCTTCTGCTGCTGGCAGGTTCTCTTTCGCTCTTGGTGCTCCACTCGCTGCTAGATCTGATCTGTCTACAGGAAATAGCGCTCATGCCTCACTCCTGCTTCGCTCAGGTGCTTTGGCCTTCCTCTTCACCGCTCCATATGCTCCCCCACCTCAGGAGGCTGCTACTGCTGCTGCTACAGCCTCCATTCCAAGCTTCTCAGCTGATGCCGCTAGAACCTTCGCTGCTGCTCATGGACTTGCCGTGAGGTCTGTTGGTGTTCGCGTGGCTGATGCTGCTGAGGCTTTCAGAGTTTCCGTTGCCGGCGGAGCTAGGCCAGCTTTCGCTCCTGCTGATTTGGGACATGGTTTCGGCCTGGCTGAGGTTGAGCTTTACGGTGACGTGGTTCTCCGCTTCGTGTCTTACCCAGATGAGACTGACCTGCCTTTCCTTCCCGGCTTCGAGAGAGTTTCCTCTCCTGGTGCCGTGGATTACGGCCTGACAAGGTTCGACCACGTGGTTGGAAACGTTCCCGAGATGGCTCCAGTGATCGATTACATGAAGGGCTTCCTTGGATTCCATGAGTTCGCCGAGTTCACTGCTGAGGACGTGGGAACCACTGAGTCCGGTTTGAACTCTGTGGTTCTCGCCAACAATTCTGAGGCTGTTTTGCTCCCTCTGAATGAGCCTGTGCATGGAACCAAGAGGAGAAGCCAGATTCAAACTTACCTGGAGTACCACGGTGGCCCTGGAGTTCAGCATATCGCCCTTGCTTCTAATGATGTGTTGCGCACACTCAGAGAGATGCGCGCCAGAACCCCCATGGGAGGTTTCGAGTTCATGGCCCCACCACAGGCTAAGTACTACGAGGGCGTTAGAAGGATTGCTGGAGACGTGTTGAGCGAGGAGCAGATCAAGGAGTGCCAAGAGCTGGGTGTTCTTGTGGATAGGGATGACCAGGGCGTTCTGCTTCAAATTGTCACTAAGCCAGTGGGCGACCGCCCTACATTCTGGCTTGAGATGATTCAAAGAATCGGCTGCATGGAGAAGGATGAGGTTGGACAGGAGTACCAAAAGGGCGGATGCGGTGGCTTCGGAAAGGGTAACTTCAGCGAGTTGTTCAAGTCAATCGAGGACTACGAGAAGAGCCTCGAGGTGAAGCAGTCAGTGGTTGCCCAAAAGTCCTGA
modifications: AsHPPDm-F372V-F383W-02 Nucleotide Sequence
notes: vector DBN11777
Resistance evaluation [1, 4]: Highly resistant | Scores [1, 4]: 0 | Grade 0 (classification and statistics of the grade of pesticide damage; number of plants) [1, 4]: 16 | Grade 1 (classification and statistics of the grade of pesticide damage; number of plants) [1, 4]: 0 | Grade 2 (classification and statistics of the grade of pesticide damage; number of plants) [1, 4]: 0 | Grade 3 (classification and statistics of the grade of pesticide damage; number of plants) [1, 4]: 0 | Resistance evaluation [1, 5]: Highly resistant | Scores [1, 5]: 0 | Grade 0 (classification and statistics of the grade of pesticide damage; number of plants) [1, 5]: 16 | Grade 1 (classification and statistics of the grade of pesticide damage; number of plants) [1, 5]: 0 | Grade 2 (classification and statistics of the grade of pesticide damage; number of plants) [1, 5]: 0 | Grade 3 (classification and statistics of the grade of pesticide damage; number of plants) [1, 5]: 0 | tolerance to topramezone (resistance class) ([1]; topramezone at four-fold or eight-fold field concentration): highly-resistant | Resistance evaluation [2, 6]: Highly resistant | Scores [2, 6]: 0 | Grade 0 (classification and statistics of the grade of pesticide damage; number of plants) [2, 6]: 16 | Grade 1 (classification and statistics of the grade of pesticide damage; number of plants) [2, 6]: 0 | Grade 2 (classification and statistics of the grade of pesticide damage; number of plants) [2, 6]: 0 | Grade 3 (classification and statistics of the grade of pesticide damage; number of plants) [2, 6]: 0 | Resistance evaluation [2, 7]: Highly resistant | Scores [2, 7]: 10 | Grade 0 (classification and statistics of the grade of pesticide damage; number of plants) [2, 7]: 12 | Grade 1 (classification and statistics of the grade of pesticide damage; number of plants) [2, 7]: 3 | Grade 2 (classification and statistics of the grade of pesticide damage; number of plants) [2, 7]: 1 | Grade 3 (classification and statistics of the grade of pesticide damage; number of plants) [2, 7]: 0 | Resistance evaluation ([3]; mesotrione 210 g ai/ha (2×)): Highly resistant | Classification and statistics of the grade of pesticide damage Grade 0 ([3]; mesotrione 210 g ai/ha (2×)): 16 | Classification and statistics of the grade of pesticide damage Grade 1 ([3]; mesotrione 210 g ai/ha (2×)): 0 | Classification and statistics of the grade of pesticide damage Grade 2 ([3]; mesotrione 210 g ai/ha (2×)): 0 | Classification and statistics of the grade of pesticide damage Grade 3 ([3]; mesotrione 210 g ai/ha (2×)): 0 | Scores ([3]; mesotrione 210 g ai/ha (2×)): 0 | Resistance evaluation ([3]; mesotrione 420 g ai/ha (4×)): Highly resistant | Classification and statistics of the grade of pesticide damage Grade 0 ([3]; mesotrione 420 g ai/ha (4×)): 15 | Classification and statistics of the grade of pesticide damage Grade 1 ([3]; mesotrione 420 g ai/ha (4×)): 1 | Classification and statistics of the grade of pesticide damage Grade 2 ([3]; mesotrione 420 g ai/ha (4×)): 0 | Classification and statistics of the grade of pesticide damage Grade 3 ([3]; mesotrione 420 g ai/ha (4×)): 0 | Scores ([3]; mesotrione 420 g ai/ha (4×)): 2
